We go through three molecules from patent US11753479B2, “Nucleic acids encoding anti-OX40L antibodies” (Kymab Limited, priority 2014, dated 2023).

This assay addresses T1, hOX40L expressed on CHO-S cells (Homo sapiens, UniProt P23510).
T1 construct: expressed in transfected cells
T1 sequence (P23510 1-183): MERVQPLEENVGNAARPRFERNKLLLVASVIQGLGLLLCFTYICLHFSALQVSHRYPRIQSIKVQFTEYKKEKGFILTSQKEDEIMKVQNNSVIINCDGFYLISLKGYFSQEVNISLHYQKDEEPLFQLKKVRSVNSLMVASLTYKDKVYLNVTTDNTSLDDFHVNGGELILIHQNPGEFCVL
Briefly: Binding to CHO-S expressed hOX40L (FACS). The conditions noted are these: binding to CHO-S expressed hOX40L by FACS. The procedure: To determine whether wells selected using the primary screen selection criteria had the required characteristics set by the inventors, a number of assays were performed. Hybridoma clones selected as hits from primary screening were cultured for 3 days and the supernatants collected from hybridoma cells were tested to assess whether the secreted antibodies that bind to CHO-S expressed hOX40L, in some case bind to untransfected CHO-S cells and whether they neutralise recombinant OX40R Fc binding to CHO-S hOX40L and ability to neutralise OX40R binding to recombinant biotinylated hOX40L.
CHO-S cells expressing hOX40L or untransfected CHO-S cells, diluted in FACS buffer (PBS+1% w/v BSA+0.1% w/v NaN3) were distributed to a 96 well V-bottom plate (Greiner) at a density of 1×10^5 cells per well. Cells were washed with 150 μL of PBS and centrifuged at 300×g for 3 min. Supernatant was aspirated and 150 μL of PBS added. This wash step was repeated.
25 μL of hybridoma supernatant or purified antibody from hybridoma supernatant diluted in FACS buffer was added to the washed cells and incubated for 10-15 minutes. Reference Antibody or mouse IgG1 control antibody (Sigma) were diluted in FACS buffer to 20 μg/mL and 25 μL added to cells. 25 μL of human OX40R Fc (in-house) diluted to 1000 ng/mL in FACS buffer were then added to wells. Cells were incubated at 4° C. for 30 minutes.
Cells were washed twice with 150 μL of PBS centrifuging after each wash step and aspirating supernatant (centrifuged at 300×g for 3 minutes). […]
To fix cells 100 μL 2% v/v paraformaldehyde was added and cells incubated for 30 minutes at 4° C., cells were pelleted by centrifugation 300×g and the plates and resuspended in 50 μL of FACS buffer. PE and APC signal intensity (geomean) was measured by flow cytometry using a BD FACS Array instrument.
% of control binding was calculated using geomean fluorescence as described in equation 1 where total binding was defined as reference antibody at 10 μg/mL and non-specific binding as mouse IgG1 antibody at 10 μg/mL. % receptor binding was calculated using Equation 3. […]

B1: 10A07 (hybridoma): murine/human chimeric anti-OX40L antibody 10A07 purified from hybridoma supernatant (antibody, V domains shown)
VH: EVQLVESGGVLVQPGGSLRLSCAASGFTFSSYIMTWVRQAPGKGLEWVSGISGSGGGTYYADSMKGRFTISRDNSKNTLYLQMNSLRVEDTAVYYCAKDRLGPITLVRGGYYYGMDVWGQGTTVTVSS
VL: DIQMTQSPSSLSASVGDRVTITCRASQSISDYLNWYQQKPGKAPKFLIYAASSLQSGVPSRFSGSGSGTDFTLTVSSLQPEDFATYYCQQSYSTPRTFGQGTRVEIK
B1: the “FACS Binding” value is reported as “YES”.

B2: 2D10 (hybridoma): murine/human chimeric anti-OX40L antibody 2D10 purified from hybridoma supernatant (antibody, V domains shown)
VH: EVQLVESGGGLVQPGGSLRLSCAASGFTFSNYAMNWVRQAPGKGLEWVSTISGSGGATRYADSVKGRFTISRDNSRNTVYLQMNSLRVEDTAVFYCTKDRLIMATVRGPYYYGMDVWGQGTTVTVSS
VL: DIQMTQSPSSLSASVGDRVTITCRASQSISSYLNWYQQKPGKAPNLLIYAASSLQSGVPSRFSGSGSETDFTLTISSLQPEDFATYYCQQSHSVSFTFGPGTKVDIK
Consider B2, for which the “FACS Binding” value was “YES”.

B3: 9H04 (hybridoma): murine/human chimeric anti-OX40L antibody purified from hybridoma supernatant (protein, listed as Homo Sapiens)
chain: QVQLVESGGGLVKPGGSLRLSCAASRFTLSDYYMTWIRQAPGKGLEWVSYISSSGNTIYYADSVKGRFTISRDNAKNSLYLQMNSLRAEDTAVYYCARDLSGSYWDYYYGMDVWGQGTTVTVSS
modifications: VH only; VL and constant regions missing
notes: murine/human chimeric anti-OX40L antibody purified from hybridoma supernatant
With B3, the “FACS Binding” value was “YES”.
